# Results as given in patent US20250340659A1 (PETMEDIX, published 2025).
# Read-outs that look alike come from different tables or passages of the source.
# B1: PMX106 (antibody, V domains shown)
# VH: EVQLVESGGDLVKPGGSLRLSCVASGFTFSSYHMSWVRQAPGKGLQWVAYINSGGSSTSYADAVKGRFTISRDNAKNTLYLQMNSLRAEDTAVYYCAGFIWTHFDYWGQGTLVTVSS
# VL: DIVMTQTPPSLSVSPRETASISCKASQSLLHSDGNTYLDWYLQKPGQSPQLLIYLVSNRFTGVSDRFSGSGSGTDFTLRISRVEANDTGVYYCGQGTQLWTFGAGTKVELK
# B2: PMX046 (antibody)
# heavy: EVQLVESGGDLVKPEGSLRLSCVVAGFTFNSYDMSWVRQAPGKGLQWVAYITSDGRFTSYTDAVKGRFTISRDNAKNTLYLQMSSLRTEDTAVYYCARHSSSWYRGRFGMDFWGHGTSLFVSSASTTAPSVFPLAPSCGSTSGSTVALACLVSGYFPEPVTVSWNSGSLTSGVHTFPSVLQSSGLYSLSSMVTVPSSRWPSETFTCNVAHPASKTKVDKPVPKRENGRVPRPPDCPKCPAPESLGGPSVFIFPPKPKDTLLIARTPEVTCVVVDLGREDPEVQISWFVDGKQMQTAKTQPREEQFNGTYRVVSVLPIGHQDWLKGKQFTCKVNHIGLPSPIERTISKARGQAHQPSVYVLPPSREELSKNTVSLTCLIKDFFPPDIDVEWQSNGQQEPESKYRTTPPQLDEDGSYFLYSKLSVDKSRWQRGDTFICAVMHEALHNHYTQKSLSHSPGK
# VL: SYVLTQLPSKNVTLKQPAHITCGGDNIGSKSVHWYQQKLGQAPILIIYYDSSRPTGIPERFSGANSGNTATLTISGALAEDEADYYCQVWDSSASVFGGGTHLTVL
# notes: also called PMX46
# Legend:
# [1] = target: T1, canine OX40L, full length membrane form, expressed on HEK293 cells (canine); assay: flow cytometry
# T1 sequence: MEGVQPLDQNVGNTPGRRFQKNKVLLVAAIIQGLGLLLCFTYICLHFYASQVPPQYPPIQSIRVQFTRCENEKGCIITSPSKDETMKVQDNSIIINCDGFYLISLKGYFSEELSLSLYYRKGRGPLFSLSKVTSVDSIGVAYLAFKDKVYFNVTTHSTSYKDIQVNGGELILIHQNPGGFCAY
# [2] = target: T1, canine OX40L, full length membrane form, expressed on HEK293 cells (canine); assay: flow cytometry, OX40L HEK minus WT HEK
# [3] = target: T1, canine OX40L, full length membrane form, expressed on HEK293 cells (canine); assay: cell-based or functional assay
# [4] = target: T2, recombinant canine OX40L ECD-TNCc-HIS protein (canine); assay: SPR KD1, bivalent analyte model
# T2 construct: also called Trimeric OX40L probe (HIS tag); trimeric canine OX40L
# T2 chain: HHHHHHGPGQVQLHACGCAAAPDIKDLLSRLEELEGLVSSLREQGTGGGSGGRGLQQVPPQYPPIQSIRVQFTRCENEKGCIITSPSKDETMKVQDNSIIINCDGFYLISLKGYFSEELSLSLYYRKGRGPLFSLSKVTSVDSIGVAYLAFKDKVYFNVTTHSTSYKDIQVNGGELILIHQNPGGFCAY
# How it was run: (§1)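 Purified antigen amine-coupled at low density to a CM5 chip; candidate antibodies injected as analyte over a concentration range. Kinetic curves fitted with a bivalent analyte model to give functional affinity and dissociation rates.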
# [5] = target: T2, recombinant canine OX40L ECD-TNCc-HIS …; assay: SPR Koff (kd2)
# How it was run: as §1
# [6] = target: T3, canine OX40L, full length membrane form, expressed on HEK293 cells (canine); assay: cell-based or functional assay
# T3 chain: T1 sequence
# [7] = target: T2, recombinant canine OX40L ECD-TNCc-HIS …; assay: SPR Koff (kd1)
# How it was run: as §1
# [8] = target: T3, canine OX40L, full length membrane …; assay: flow cytometry
# How it was run: (§2)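 CHO supernatants at 1, 5 or 10 μg/ml in PBS/3% FBS incubated 30′ on ice with cells surface-expressing canine OX40L. Bound antibody detected with fluorescent anti-canine Fc secondary (1:1000, 30 min, dark) and measured by flow cytometry, with parental WT HEK signal subtracted where stated.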
# [9] = target: T3, canine OX40L, full length membrane …; assay: flow cytometry, OX40L HEK minus WT HEK
# How it was run: as §2
Molecule,GEO mean OX40L expressing HEK [1],GEO mean difference [2],% Signal Inhibition Average [3],% Signal Inhibition Rep1 [3],% Signal Inhibition Rep2 [3],% Signal Inhibition Rep3 [3],Kd [4],koff [5],% Signal Inhibition Average [6],% Signal Inhibition Rep1 [6],% Signal Inhibition Rep2 [6],% Signal Inhibition Rep3 [6],koff [7],GEO mean OX40L expressing HEK [8],GEO mean difference [9]
neg CTR,19600,-4380,–,–,–,–,–,–,–,–,–,–,–,–,–
B1,7760,4100,-17.2%,-9.89%,-4.12%,-37.6%,–,–,–,–,–,–,–,–,–
B2,–,–,–,–,–,–,40.4 nM,2.02e-05 s⁻¹,84.8%,84.8%,69.5%,100%,0.00101 s⁻¹,1.25e+06,1.22e+06
